Assay [1] addresses somatostatin receptor SST-3 (CHO-SST-3 (mb)) (Homo sapiens (Human), UniProt P32745 1-418). In words: radioligand competition binding, CHO-SST-3 (mb).
For assay [2], the target named is T1, Somatostatin receptor subtype 2 (SST-2) on rat pancreatic carcinoma AR4-2J cells (rat, UniProt P30680 1-369).
T1 construct: whole, on cells; Whole-cell suspension; the cells express predominantly, not only, SST-2; also called AR2-2J cells
In words: competition with [125I]-[Tyr1]-somatostatin on AR4-2J cell suspension, filtration, Cheng-Prusoff. As to the method: (§1) The cells were grown in tissue culture dishes (Falcon) which were incubated at 37° C. in an atmosphere of 5% CO₂ and 95% humidified air in DMEM medium with 4.5 g/l glucose supplemented with 1% L-glutamine, 20% foetal calf serum, 1% penicillin/streptomycin and amphotericin B (1 μg/mL). Subculturing was performed with a trypsin/EDTA (0.05%/0.02% w/v) solution. All products were purchased from Sigma (Saint-Quentin Fallavier; France). At 100% confluence, the medium was removed and the cells were harvested using Versen buffer (PBS+5 mM EDTA), washed with ice-cold phosphate buffer and finally centrifuged at 1000 g for 7 min (4° C.). The pellet was suspended in ice-cold buffer (10 mM MgCl₂, 0.25% BSA, 50 mM HEPES pH7.5, 1% protease inhibitor cocktail (Sigma) and cells suspension was stored in ice before binding experiments.
(§2) All binding experiments for AR4-2J cells were done at 37° C. in 10 mM MgCl₂, 0.25% BSA, 50 mM HEPES pH7.5, 1% protease inhibitor cocktail (Sigma). […] Non-specific binding was determined in the presence of 5 μM somatostatin-28. Incubation was terminated by addition of ice-cold washing buffer (Tris 10 mM pH7.2) and rapid filtration over Whatman GF/C glass fiber filters pre-soaked in 0.5% polyethylenimine. The filters activity was measured in a Cobra gamma counter. Each experiment has been performed in duplicates at least two times.

Assay [3] concerns the target T1, Somatostatin receptor subtype 2 (SST-2) …. In words: competition with [125I]-[Tyr1]-somatostatin on AR4-2J cell suspension. As to the method:
as §1, §2

Assay [4] has as its target somatostatin receptor SST-1 (CHO-SST-1 (mb)) (Homo sapiens (Human), UniProt P30872 1-391). Put plainly: radioligand competition binding, CHO-SST-1 (mb).
For assay [5], the target named is somatostatin receptor SST-5 (CHO-SST-5 (mb)) (Homo sapiens (Human), UniProt P35346 1-364). In words: radioligand competition binding, CHO-SST-5 (mb).
somatostatin receptor SST-5 (CHO-SST-5 (mb)), sequence (P35346 whole entry, form in doubt): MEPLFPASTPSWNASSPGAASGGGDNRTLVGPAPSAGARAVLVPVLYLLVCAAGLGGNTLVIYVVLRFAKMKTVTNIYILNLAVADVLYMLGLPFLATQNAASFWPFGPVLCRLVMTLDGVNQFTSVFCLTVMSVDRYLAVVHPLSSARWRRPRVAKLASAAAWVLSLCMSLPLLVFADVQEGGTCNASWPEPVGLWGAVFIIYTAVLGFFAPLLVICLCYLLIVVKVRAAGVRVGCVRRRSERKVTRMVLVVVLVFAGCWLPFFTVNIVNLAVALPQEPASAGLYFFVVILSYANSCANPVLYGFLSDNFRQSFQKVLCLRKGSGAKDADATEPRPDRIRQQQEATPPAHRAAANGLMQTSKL
The target in assay [6] is T2, somatostatin receptor SST-2 (CHO-SST-2 (mb)) (Homo sapiens (Human), UniProt P30874 1-369).
T2 construct: Printed as 'CHO-SST-2 (mb)'; also called SST-2 receptor
T2 sequence (P30874 whole entry, form in doubt): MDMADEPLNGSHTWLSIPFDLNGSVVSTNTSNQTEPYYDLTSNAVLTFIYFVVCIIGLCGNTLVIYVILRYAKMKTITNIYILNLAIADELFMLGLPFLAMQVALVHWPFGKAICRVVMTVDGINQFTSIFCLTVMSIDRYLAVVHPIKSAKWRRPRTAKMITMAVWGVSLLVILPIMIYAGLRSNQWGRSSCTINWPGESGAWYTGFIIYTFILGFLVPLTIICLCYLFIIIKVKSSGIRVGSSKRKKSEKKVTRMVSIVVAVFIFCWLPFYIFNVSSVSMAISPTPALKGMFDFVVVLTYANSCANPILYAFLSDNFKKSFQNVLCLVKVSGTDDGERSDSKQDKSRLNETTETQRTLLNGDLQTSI
In words: radioligand competition binding, CHO-SST-2 (mb).

Drawing on patent US20110318827A1 (COMMISSARIAT A L ENERGIE ATOMIQUE ET AUX ENERGIES …, published 2011), this text covers Ki and Kd for three molecules.

Bridge positions count the residues as written; N and C are the ends. Square brackets hold non-standard residues; d marks the D form. Ends that are not written are not given here.

T1 sequence (P30680 whole entry): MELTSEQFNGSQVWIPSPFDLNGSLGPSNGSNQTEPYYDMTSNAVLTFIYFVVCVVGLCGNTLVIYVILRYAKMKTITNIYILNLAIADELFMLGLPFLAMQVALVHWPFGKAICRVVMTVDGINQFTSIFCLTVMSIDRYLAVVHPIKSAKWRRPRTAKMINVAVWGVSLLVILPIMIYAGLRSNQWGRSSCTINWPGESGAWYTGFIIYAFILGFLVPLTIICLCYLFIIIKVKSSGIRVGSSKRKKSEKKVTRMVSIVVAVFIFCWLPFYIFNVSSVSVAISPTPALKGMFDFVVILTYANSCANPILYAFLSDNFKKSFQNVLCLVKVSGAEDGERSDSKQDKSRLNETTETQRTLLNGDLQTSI
somatostatin receptor SST-1 (CHO-SST-1 (mb)), sequence (P30872 whole entry, form in doubt): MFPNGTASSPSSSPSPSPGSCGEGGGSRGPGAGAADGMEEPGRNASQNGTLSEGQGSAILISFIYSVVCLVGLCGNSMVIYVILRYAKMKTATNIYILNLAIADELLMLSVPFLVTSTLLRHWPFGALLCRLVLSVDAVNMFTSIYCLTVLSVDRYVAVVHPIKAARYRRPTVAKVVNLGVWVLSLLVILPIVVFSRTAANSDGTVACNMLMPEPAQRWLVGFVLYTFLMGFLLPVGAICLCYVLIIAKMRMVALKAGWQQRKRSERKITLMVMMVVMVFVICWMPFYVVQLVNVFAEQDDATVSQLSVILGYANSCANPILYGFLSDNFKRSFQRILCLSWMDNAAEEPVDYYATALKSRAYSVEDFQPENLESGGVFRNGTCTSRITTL
somatostatin receptor SST-3 (CHO-SST-3 (mb)), sequence (P32745 whole entry, form in doubt): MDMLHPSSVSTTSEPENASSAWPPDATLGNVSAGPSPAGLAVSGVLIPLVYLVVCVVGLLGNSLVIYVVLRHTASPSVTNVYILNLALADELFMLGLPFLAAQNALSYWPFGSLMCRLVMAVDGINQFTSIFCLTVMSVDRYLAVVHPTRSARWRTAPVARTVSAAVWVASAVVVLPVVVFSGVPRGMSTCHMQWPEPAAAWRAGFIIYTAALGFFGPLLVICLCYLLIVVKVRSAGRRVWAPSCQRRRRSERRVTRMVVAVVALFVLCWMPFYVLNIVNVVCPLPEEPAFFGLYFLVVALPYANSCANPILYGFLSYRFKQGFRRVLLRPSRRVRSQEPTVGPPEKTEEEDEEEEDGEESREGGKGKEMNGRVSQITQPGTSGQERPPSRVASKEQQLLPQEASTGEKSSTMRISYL

B1: TcO[HTGRRRGG-RC-121] (peptide)
peptide: TGRRRGGFCYWKVCT
modifications: [TcO]3+ core chelated by the N-terminal HTGRRR tag; free N-terminus; the RC-121 part carries D-Phe, D-Trp, a C-terminal amide and the preserved disulfide bridge
Take B1: the Ki turned out to be 10 nM in assay [1]; 0.066 nM in assay [2]; 58 nM in assay [4]; 30 nM in assay [5]; 0.02 nM in assay [6]. The same molecule returned a Kd in assay [3] of 0.06 nM.

B2: RC-121 (peptide)
peptide: [dF]CY[dW]KVCT-NH2
modifications: disulfide 2-7
notes: Cyclic octapeptide somatostatin analog, made by solid phase synthesis
The molecule B2 registered a Ki in assay [2] of 0.3 nM. That is a sub-nanomolar value.

B3: HTGRRRGG-RC-121 (peptide)
peptide: TGRRRGGFCYWKVCT
HELM: PEPTIDE1{T.G.R.R.R.G.G.[dF].C.Y.[dW].K.V.C.T.[am]}$PEPTIDE1,PEPTIDE1,9:R3-14:R3$$$V2.0
SMILES: CC(C)[C@@H]1NC(=O)[C@H](CCCCN)NC(=O)[C@@H](Cc2c[nH]c3ccccc23)NC(=O)[C@H](Cc2ccc(O)cc2)NC(=O)[C@@H](NC(=O)[C@@H](Cc2ccccc2)NC(=O)CNC(=O)CNC(=O)[C@H](CCCNC(=N)N)NC(=O)[C@H](CCCNC(=N)N)NC(=O)[C@H](CCCNC(=N)N)NC(=O)CNC(=O)[C@@H](N)[C@@H](C)O)CSSC[C@@H](C(=O)N[C@H](C(N)=O)[C@@H](C)O)NC1=O
notes: not complexed with Tc
Take B3: the figures for the Ki in assay [2] and in assay [6] were 0.035 nM and 0.02 nM, respectively.
